From patent US20200316121A1 (published 2020) come the findings set out here.

Assay in all cases: activation reporter or marker
The target in assay [1] is T1, p53 R248W peptide on HLA-A*68:01 (human).
T1 peptide: SSCMGGMNWR

Assay [2] addresses T2, p53 Y220C peptide on HLA-DRB1*04:01:01 (human).
T2 peptide: RNTFRHSVVVPCE

Assay [3] has as its target T3, p53 wild type (Y220) peptide on HLA-DRB1*04:01:01 (human).
T3 peptide: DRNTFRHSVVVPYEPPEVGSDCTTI

Substitutions are numbered along the chain they refer to.

B1: 4266-TCR3 (TCR, V domains shown)
Valpha: GQNIDQPTEMTATEGAIVQINCTYQTSGFNGLFWYQQHAGEAPTFLSYNVLDGLEEKGRFSSFLSRSKGYSYLLLKELQMKDSASYLCAFYYGGSQGNLIFGKGTKLSVKP
Vbeta: GAGVSQSPRYKVAKRGQDVALRCDPISGHVSLFWYQQALGQGPEFLTYFQNEAQLDKSGLPSDRFFAERPEGSVSTLKIQRTQQEDSAVYLCASSFGSGSTDTQYFGPGTRLTVL
Take B1: the binding result in assay [1] was “recognises”.

B2: 4259-F6-TCR (TCR, V domains shown)
Valpha: QKEVEQNSGPLSVPEGAIASLNCTYSDRGSQSFFWYRQYSGKSPELIMFIYSNGDKEDGRFTAQLNKASQYVSLLIRDSQPSDSATYLCAWNSGGSNYKLTFGKGTLLTVNP
Vbeta: NAGVTQTPKFRVLKTGQSMTLLCAQDMNHEYMYWYRQDPGMGLRLIHYSVGEGTTAKGEVPDGYNVSRLKKQNFLLGLESAAPSQTSVYFCASSYSQAWGQPQHFGDGTRLSIL
As to B2, the binding result is given as “recognises” in assay [2] and “no recognition” in assay [3].

B3: 4266-TCR2 (TCR, V domains shown)
Valpha: GQNIDQPTEMTATEGAIVQINCTYQTSGFNGLFWYQQHAGEAPTFLSYNVLDGLEEKGRFSSFLSRSKGYSYLLLKELQMKDSASYLCAVYTGGFKTIFGAGTRLFVKA
Vbeta: EAGVAQSPRYKIIEKRQSVAFWCNPISGHATLYWYQQILGQGPKLLIQFQNNGVVDDSQLPKDRFSAERLKGVDSTLKIQPAKLEDSAVYLCASNLGGGSTDTQYFGPGTRLTVL
Turning to B3, in assay [1], the binding result is reported as “recognises”.

B4: 4266-TCR4 (TCR, V domains shown)
Valpha: B1 Valpha with F90V, Y92P
Vbeta: B3 Vbeta with N95S, G98T
As to B4, the binding result in assay [1] was “recognises”.
